Results as given in the supplement of paper PMC10567573.

B1: TRIM35 (parent)
chain: WEVQVSPTCPVCKDRASPADLRTN

Variants of: B1
Assay: protein stability index of a GFP-peptide fusion (GPS, HEK-293T) (PSI 1-6); higher = more stable
Conditions: c terminus: a fixed tail appended
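Note: lentivirally expressed fusions sorted by FACS into six bins by GFP to DsRed ratio, PSI derived from sequencing read proportions per bin multiplied by bin number.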

Variant	protein stability index
WEVQVSPTCPVCKDRASPCDLRTN	2.31
WEVQVSPTCPVCKDRASPFDLRTN	2.99
WEVQVSPTCPVCKDRASPKDLRTN	2.96
WEVQVSPTCPVCKDRASPPDLRTN	2.02
WEVQVSTTCPVCKDRASPADLRTN	1.58
WEVQVSWTCPVCKDRASPADLRTN	2.58
WEVQVSITCPVCKDRASPADLRTN	1.97
DEVQVSPTCPVCKDRASPADLRTN	3.25
REVQVSPTCPVCKDRASPADLRTN	3.66
AEVQVSPTCPVCKDRASPADLRTN	3.05
VEVQVSPTCPVCKDRASPADLRTN	3.4
PEVQVSPTCPVCKDRASPADLRTN	3.29
CEVQVSPTCPVCKDRASPADLRTN	3
GEVQVSPTCPVCKDRASPADLRTN	2.92
KEVQVSPTCPVCKDRASPADLRTN	3.54
HEVQVSPTCPVCKDRASPADLRTN	3.37
WEVQVSPTCPVCKDRASPADLRTC	2.43
WEVQVSPTCPVCKDRASPADLRTE	2.29
WEVQVSPTCPVCKDRASPADLRTH	1.42
WEVQVSPTCPVCKDRASPADLRTS	2.57
WEVQVSPTCPVCKDRASPADLRTI	1.7
WEVQVSPTCPVCKDRASPADLRTP	2.47
WEVQVSPTCPVCKDRASPADLRTQ	2.81
WEVQVSPTCPVCKDRASPADLRTA	2.29

Variant	protein stability index
WHVQVSPTCPVCKDRASPADLRTN	2.51
WSVQVSPTCPVCKDRASPADLRTN	2.58
WFVQVSPTCPVCKDRASPADLRTN	1.72
WAVQVSPTCPVCKDRASPADLRTN	2.48
WRVQVSPTCPVCKDRASPADLRTN	1.98
WMVQVSPTCPVCKDRASPADLRTN	1.41
WIVQVSPTCPVCKDRASPADLRTN	2.45
WGVQVSPTCPVCKDRASPADLRTN	2.56
WCVQVSPTCPVCKDRASPADLRTN	2.46
WWVQVSPTCPVCKDRASPADLRTN	1.68
WPVQVSPTCPVCKDRASPADLRTN	2.12
WVVQVSPTCPVCKDRASPADLRTN	2.21
WEVQVSPTCPVCKDRVSPADLRTN	2.49
WEVQVSPTCPVCKDRLSPADLRTN	1.82
WEVQVSPTCPVCKDRTSPADLRTN	2.79
WEVQVSPTCPVCKDRSSPADLRTN	2.42
WEVQVSPTCPVCKDRESPADLRTN	2.78
WEVQVSPTCPVCKDRNSPADLRTN	1.84
WEVQVSPTCPVCKDRCSPADLRTN	1.41
WEVQVSPTCPVCKDRFSPADLRTN	1.91
WEVQVSPTCPVCKDRHSPADLRTN	2.71
WEVQVSPTCPVCKDRQSPADLRTN	2.96
WEVQVSPTCPVCKDRWSPADLRTN	1.85
WEVQVSPTCPVCKDRKSPADLRTN	2.8

Variant	protein stability index
WEVQVSPTCPVCKDRPSPADLRTN	2.29
WEVQVTPTCPVCKDRASPADLRTN	2.22
WEVQVRPTCPVCKDRASPADLRTN	2.5
WEVQVYPTCPVCKDRASPADLRTN	2.07
WEVQVWPTCPVCKDRASPADLRTN	1.94
WEVQVCPTCPVCKDRASPADLRTN	2.63
WEVQVGPTCPVCKDRASPADLRTN	2.54
WEVQVIPTCPVCKDRASPADLRTN	2.12
WETQVSPTCPVCKDRASPADLRTN	3.5
WEYQVSPTCPVCKDRASPADLRTN	3.35
WECQVSPTCPVCKDRASPADLRTN	2.11
WEAQVSPTCPVCKDRASPADLRTN	3.31
WESQVSPTCPVCKDRASPADLRTN	3.38
WEKQVSPTCPVCKDRASPADLRTN	2.83
WEQQVSPTCPVCKDRASPADLRTN	2.96
WEMQVSPTCPVCKDRASPADLRTN	2.79
WEGQVSPTCPVCKDRASPADLRTN	2.29
WEDQVSPTCPVCKDRASPADLRTN	3.35
WEPQVSPTCPVCKDRASPADLRTN	2.49
WEFQVSPTCPVCKDRASPADLRTN	2.39
WEWQVSPTCPVCKDRASPADLRTN	2.8
WEHQVSPTCPVCKDRASPADLRTN	3.16
WEVQLSPTCPVCKDRASPADLRTN	2.29
WEVQDSPTCPVCKDRASPADLRTN	4.04

Variant	protein stability index
WEVQNSPTCPVCKDRASPADLRTN	2.71
WEVQQSPTCPVCKDRASPADLRTN	3.37
WEVQTSPTCPVCKDRASPADLRTN	3.03
WEVQSSPTCPVCKDRASPADLRTN	2.94
WEVQVSPTCPVCKDRAEPADLRTN	3.89
WEVQVSPTCPVCKDRATPADLRTN	2.05
WEVQVSPTCPVCKDRAAPADLRTN	2.48
WEVQVSPTCPVCKDRAWPADLRTN	3.4
WEVQVSPTCPVCKDRASPADLRAN	2.28
WEVQVSPTCPVCKDRASPADLRLN	3.09
WEVQVSPTCPVCKDRASPADLRSN	2.26
WEVQVSPTCPVCKDRASPADLREN	2.83
WEVQVSPTCPVCKDRASPADLRCN	2.13
WEVQVSPTCPVCKDRASPADLRVN	2.06
WEVQVSPTCPVCKDRASPADLRPN	2.08
WEVQVSPTCPVCKDRASPADLRKN	3.12
WEVQVSPTCPVCKDRASPADLRMN	2.5
WEVQVSPTCMVCKDRASPADLRTN	2.46
WEVQVSPTCHVCKDRASPADLRTN	2.81
WEVQVSPTCNVCKDRASPADLRTN	2.58
WEVQVSPTCSVCKDRASPADLRTN	3.32
WEVQVSPTCKVCKDRASPADLRTN	2.79
